Reference: PMC8125140

Legend:
[1] = biological target: γ2-GABAA receptor (endogenous) (rat (endogenous in hippocampal neurons)) (UniProt P18508)
[2] = biological target: γ2-GABAA subunit fused with a superecliptic pHluorin (SEP) tag (UniProt P18508)
[3] = biological target: γ2-GABAA subunit fused with a superecliptic pHluorin (SEP) tag (UniProt P18508); remark: listed apart in the source
[4] = biological target: γ2-GABAA subunit fused with a superecliptic pHluorin (SEP) tag (UniProt P18508); remark: listed apart in the source

Substance	diffusion coefficient median of extrasynaptic D5Rs (D5R–YFP) after incubation with the disrupting peptide TATD5Ct (10 µM); control 7.42 10^−2 µm^2/s [1] [µm^2/s]	explored area of extrasynaptic D5Rs (D5R–YFP) with the disrupting peptide TATD5Ct (10 µM); control 2.37 10^−2 µm^2 [1] [µm^2]	immobile fraction of extrasynaptic D5Rs (D5R–YFP, single nanoparticle tracking) with the disrupting peptide TATD5Ct (10 µM); not changed [1] [%]	diffusion coefficient median of SEP-γ2-GABAARs at excitatory synapses with the disrupting peptide TATD5Ct (10 µM); control 3.15 10^−2 µm^2/s; no change (p = 0.13) [2] [µm^2/s]	explored area of SEP-γ2-GABAARs at excitatory synapses with the disrupting peptide TATD5Ct (10 µM); control 0.60 10^−2 µm^2; unchanged (p = 0.097) [2] [µm^2]	immobile fraction of SEP-γ2-GABAARs at excitatory synapses with the disrupting peptide TATD5Ct (10 µM); no change [2] [%]	diffusion coefficient median of extrasynaptic SEP-γ2-GABAARs after incubation with the disrupting peptide TATD5Ct (10 µM); control 4.11 10^−2 µm^2/s [3] [µm^2/s]	explored area of extrasynaptic SEP-γ2-GABAARs with the disrupting peptide TATD5Ct (10 µM); control 1.24 10^−2 µm^2 [3] [µm^2]	immobile fraction of extrasynaptic SEP-γ2-GABAARs with the disrupting peptide TATD5Ct (10 µM); control 25% [3] [%]	diffusion coefficient median of SEP-γ2-GABAARs at inhibitory synaptic sites with the disrupting peptide TATD5Ct (10 µM); control 1.81 10^−2 µm^2/s [4] [µm^2/s]	explored area of SEP-γ2-GABAARs at inhibitory synapses with the disrupting peptide TATD5Ct (10 µM); control 0.30 10^−2 [4] [µm^2/s]	immobile fraction (D < 0.005 µm^2/s) of SEP-γ2-GABAARs at inhibitory synapses, single nanoparticle tracking, after the disrupting peptide TATD5Ct (10 µM, 10 min); control 33% [4] [%]
dopamine D5 receptor fused to the yellow fluorescent protein (YFP) (from UniProt P25115 1-475)	0.103	0.0345	15									
dopamine D5 receptor (endogenous) (from UniProt P25115 1-475)				0.0412	0.0073	20	0.075	0.0245	17	0.0578	0.0133	9
